Assays:
Assay in all cases: virus attachment assay at 4° C. on transfected L929 cells, immunostaining, Mander's co-localization coefficient
[1] = target: human tryptophanyl-tRNA synthetase (hWARS) on cells (human) (UniProt P23381)
[2] = target: human scavenger receptor class B member 2 (hSCARB2) on L929 cells (human) (UniProt Q14108)
[3] = target: human P-selectin glycoprotein ligand-1 (hPSGL1) on L929 cells (human) (UniProt Q14242)
Sequence of UniProt Q14242 (Q14242 42-412): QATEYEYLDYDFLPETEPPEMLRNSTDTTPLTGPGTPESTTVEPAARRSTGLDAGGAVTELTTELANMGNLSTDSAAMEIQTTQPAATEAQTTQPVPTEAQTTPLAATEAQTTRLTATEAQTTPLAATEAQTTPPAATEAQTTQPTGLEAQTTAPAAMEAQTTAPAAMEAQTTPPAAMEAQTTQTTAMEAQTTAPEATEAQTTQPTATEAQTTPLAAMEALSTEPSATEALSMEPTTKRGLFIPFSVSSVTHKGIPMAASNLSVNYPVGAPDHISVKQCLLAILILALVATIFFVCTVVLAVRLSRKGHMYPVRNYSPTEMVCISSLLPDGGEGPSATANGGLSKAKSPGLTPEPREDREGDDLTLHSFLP

Sequence of UniProt Q14108 (Q14108 whole entry): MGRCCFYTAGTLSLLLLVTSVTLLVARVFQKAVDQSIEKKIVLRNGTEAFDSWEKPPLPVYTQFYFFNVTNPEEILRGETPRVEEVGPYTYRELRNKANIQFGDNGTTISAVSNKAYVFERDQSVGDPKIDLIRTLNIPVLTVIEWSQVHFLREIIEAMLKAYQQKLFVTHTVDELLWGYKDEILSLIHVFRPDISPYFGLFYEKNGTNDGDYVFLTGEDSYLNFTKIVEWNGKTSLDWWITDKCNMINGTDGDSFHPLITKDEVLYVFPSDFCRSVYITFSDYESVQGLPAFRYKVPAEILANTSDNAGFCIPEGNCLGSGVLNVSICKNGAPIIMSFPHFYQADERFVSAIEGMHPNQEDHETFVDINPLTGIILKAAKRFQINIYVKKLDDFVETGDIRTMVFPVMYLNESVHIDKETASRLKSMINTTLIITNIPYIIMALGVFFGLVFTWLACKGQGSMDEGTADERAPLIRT
Sequence of UniProt P23381 (P23381 2-471): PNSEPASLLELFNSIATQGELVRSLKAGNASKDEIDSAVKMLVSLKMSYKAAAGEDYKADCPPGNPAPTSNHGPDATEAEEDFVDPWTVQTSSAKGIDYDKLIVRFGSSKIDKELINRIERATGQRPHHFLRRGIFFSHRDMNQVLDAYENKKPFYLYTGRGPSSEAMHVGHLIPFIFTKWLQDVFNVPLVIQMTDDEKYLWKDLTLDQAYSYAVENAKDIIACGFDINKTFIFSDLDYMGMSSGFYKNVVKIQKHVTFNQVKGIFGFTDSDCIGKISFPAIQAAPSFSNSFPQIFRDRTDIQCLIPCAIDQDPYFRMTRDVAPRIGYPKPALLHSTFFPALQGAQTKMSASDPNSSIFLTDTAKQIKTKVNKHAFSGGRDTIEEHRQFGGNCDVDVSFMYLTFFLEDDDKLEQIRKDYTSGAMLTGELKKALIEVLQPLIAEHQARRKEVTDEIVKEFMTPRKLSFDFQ

**Q.** enterovirus 71 (EV-A71) virus was tested. Which co-localization coefficient (R) [1] did it give?
**A.** Its co-localization coefficient (R) is 0.655.

**Q.** What about the co-localization coefficient (R) [2] of the same substance?
**A.** Its co-localization coefficient (R) is 0.432.

**Q.** What about the co-localization coefficient (R) [3] of the same substance?
**A.** The co-localization coefficient (R) was 0.501.
